Target: the molecule itself
Assay: negative-stain electron microscopy; purified SynPOR with PG lipids and either Chlide + NADPH or Pchlide + NADP+; search for large oligomers; 37 mM sodium phosphate pH 7.1, 225 mM NaCl, 150 mM imidazole, 5 mM beta-mercaptoethanol, 25% glycerol

B1: light-dependent protochlorophyllide oxidoreductase from Synechocystis (SynPOR) (enzyme, UniProt Q59987 1-322, looked up)
chain: MEQPMKPTVIITGASSGVGLYGAKALIDKGWHVIMACRNLDKTQKVADELGFPKDSYTIIKLDLGYLDSVRRFVAQFRELGRPLKALVCNAAVYFPLLDEPLWSADDYELSVATNHLGHFLLCNLLLEDLKACPDADKRLIILGTVTANSKELGGKIPIPAPPDLGNFEGFEAGFKKPIAMINNKKFKSGKAYKDSKLCNMLTTRELHRRFHQETGIVFNSLYPGCVADTPLFRNHYSLFRTIFPWFQKNVTKGYVSQELAGERVAMVVADDKFKDSGVHWSWGNRQQAGREAFVQELSEQGSDAQKAQRMWDLSEKLVGLV
notes: light-dependent protochlorophyllide oxidoreductase (SynPOR), Synechocystis, Uniprot Q59987; The reaction buffer holds 150 mM imidazole, so a His tag is likely (surmise); In the assay it stood with PG liposomes, pigment (Pchlide or Chlide) and NADP+ or NADPH; also called cyanobacterial LPOR; LPOR
binding result: binds

Source: doi:10.1101/2024.03.08.584095, “LPOR and the membranes – evolutionary pathway towards prolamellar body formation” (bioRxiv, 2024)
